Article PMC6789141, “ZC3H18 specifically binds and activates the BRCA1 promoter to facilitate homologous recombination in ovarian cancer”

Target: T1, SFB-ZC3H18 (human, UniProt Q86VM9 1-953)
T1 sequence: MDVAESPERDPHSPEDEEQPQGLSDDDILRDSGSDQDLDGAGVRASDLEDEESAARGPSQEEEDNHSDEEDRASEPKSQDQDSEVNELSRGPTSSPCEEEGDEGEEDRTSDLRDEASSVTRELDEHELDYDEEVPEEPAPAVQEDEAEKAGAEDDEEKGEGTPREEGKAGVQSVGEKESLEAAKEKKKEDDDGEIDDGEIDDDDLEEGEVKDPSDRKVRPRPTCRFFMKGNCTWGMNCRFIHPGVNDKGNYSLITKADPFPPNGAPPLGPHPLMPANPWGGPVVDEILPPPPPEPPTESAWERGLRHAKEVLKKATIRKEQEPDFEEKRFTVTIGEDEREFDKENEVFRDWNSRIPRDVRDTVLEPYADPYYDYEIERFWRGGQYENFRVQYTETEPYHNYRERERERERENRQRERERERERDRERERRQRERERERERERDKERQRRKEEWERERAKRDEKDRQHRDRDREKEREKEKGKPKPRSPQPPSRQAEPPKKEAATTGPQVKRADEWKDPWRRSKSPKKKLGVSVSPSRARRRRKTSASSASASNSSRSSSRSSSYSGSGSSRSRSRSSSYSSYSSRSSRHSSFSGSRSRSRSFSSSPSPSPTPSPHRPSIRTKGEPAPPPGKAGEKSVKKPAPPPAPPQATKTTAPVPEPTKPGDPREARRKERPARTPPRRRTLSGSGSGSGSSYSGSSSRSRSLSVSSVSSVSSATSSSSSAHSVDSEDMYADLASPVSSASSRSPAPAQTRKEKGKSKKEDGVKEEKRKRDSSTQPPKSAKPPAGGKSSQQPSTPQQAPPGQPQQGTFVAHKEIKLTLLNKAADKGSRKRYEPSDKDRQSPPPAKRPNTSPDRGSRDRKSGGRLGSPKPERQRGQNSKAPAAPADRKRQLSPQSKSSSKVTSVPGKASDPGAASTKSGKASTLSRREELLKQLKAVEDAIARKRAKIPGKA
Assay: EMSA; cold competition and anti-S-tag supershift confirm; EMSA: 20 mM Tris-HCl pH 8.0, 50 mM NaCl, 1 mM MgCl2, 5 mg/ml BSA, 1 mM DTT, 20 min at room temperature; 5% native gel, 0.25x TBE, 4 °C
Settings: protein: recombinant; C-terminal 6xHis; label: 32P 5' end; duplex of complementary 50-mers

B1: E2FA/BWT (dsDNA)
DNA 1: TAGCCCCTTGGTTTCCGTGGCAACGGAAAAGCGCGGGAATTACAGATAAA
DNA 2: TTTATCTGTAATTCCCGCGCTTTTCCGTTGCCACGGAAACCAAGGGGCTA
B1: binds.
